One assay concerns the target T1, His-DBC1 (human, UniProt Q8N163 1-923).
T1 construct: Deleted in breast cancer 1 (DBC1, CCAR2), human; also called His-tagged DBC1; source: E. coli BL21, purified
Description: pull-down; GST-SIAH2 and His-DBC1 proteins from E. coli incubated in vitro overnight, GST beads for 2 hr at 4°C; blotted with an anti-DBC1 antibody. The following applies: both partners purified.

Assay [1] has as its target T2, N-terminal half of His-DBC1 (1–461) (human, UniProt Q8N163 1-461).
T2 construct: source: bacterially expressed (E. coli)
Described as above. The following applies: both partners purified.

The values that follow come from PMC9377797, “Hypoxia-induced proteasomal degradation of DBC1 by SIAH2 in breast cancer progression” (eLife, 2022).

T1 sequence (Q8N163 whole entry): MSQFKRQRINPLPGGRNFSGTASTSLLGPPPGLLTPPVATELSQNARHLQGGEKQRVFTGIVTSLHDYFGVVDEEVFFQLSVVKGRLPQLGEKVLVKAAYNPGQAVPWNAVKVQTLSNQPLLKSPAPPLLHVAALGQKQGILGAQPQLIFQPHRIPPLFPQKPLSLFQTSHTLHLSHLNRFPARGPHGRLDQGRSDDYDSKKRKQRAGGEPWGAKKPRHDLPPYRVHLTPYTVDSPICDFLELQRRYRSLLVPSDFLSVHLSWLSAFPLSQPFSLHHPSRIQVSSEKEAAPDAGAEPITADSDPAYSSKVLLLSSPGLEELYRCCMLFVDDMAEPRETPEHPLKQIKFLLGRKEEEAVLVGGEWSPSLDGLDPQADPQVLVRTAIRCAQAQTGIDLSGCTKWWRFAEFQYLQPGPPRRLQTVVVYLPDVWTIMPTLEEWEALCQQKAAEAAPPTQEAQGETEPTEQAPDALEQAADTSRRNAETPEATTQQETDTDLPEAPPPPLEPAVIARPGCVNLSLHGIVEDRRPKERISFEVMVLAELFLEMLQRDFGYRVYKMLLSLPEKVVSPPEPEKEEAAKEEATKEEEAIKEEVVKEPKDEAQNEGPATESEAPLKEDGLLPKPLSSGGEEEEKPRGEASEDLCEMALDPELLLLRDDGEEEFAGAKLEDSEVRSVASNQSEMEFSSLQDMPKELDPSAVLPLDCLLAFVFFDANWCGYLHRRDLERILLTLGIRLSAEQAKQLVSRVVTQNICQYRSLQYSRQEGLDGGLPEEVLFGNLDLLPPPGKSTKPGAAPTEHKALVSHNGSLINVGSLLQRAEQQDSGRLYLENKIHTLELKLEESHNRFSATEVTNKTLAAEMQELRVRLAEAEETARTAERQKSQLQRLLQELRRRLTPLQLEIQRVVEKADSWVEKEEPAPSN
T2 sequence (Q8N163 1-461): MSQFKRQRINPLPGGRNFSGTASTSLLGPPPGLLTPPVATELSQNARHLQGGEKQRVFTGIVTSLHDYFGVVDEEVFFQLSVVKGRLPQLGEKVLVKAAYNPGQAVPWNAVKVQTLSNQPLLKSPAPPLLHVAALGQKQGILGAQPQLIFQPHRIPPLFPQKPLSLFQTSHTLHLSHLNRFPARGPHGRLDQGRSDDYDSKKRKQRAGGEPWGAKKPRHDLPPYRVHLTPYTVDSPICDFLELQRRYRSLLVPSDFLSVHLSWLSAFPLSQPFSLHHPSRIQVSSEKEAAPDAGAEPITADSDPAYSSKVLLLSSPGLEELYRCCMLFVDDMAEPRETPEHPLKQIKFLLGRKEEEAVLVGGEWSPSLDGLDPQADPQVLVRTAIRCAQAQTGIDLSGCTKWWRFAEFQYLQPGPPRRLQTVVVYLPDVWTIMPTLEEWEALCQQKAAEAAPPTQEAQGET

B1: GST-SIAH2 (enzyme, human, UniProt O43255 1-324, looked up)
chain: MSRPSSTGPSANKPCSKQPPPQPQHTPSPAAPPAAATISAAGPGSSAVPAAAAVISGPGGGGGAGPVSPQHHELTSLFECPVCFDYVLPPILQCQAGHLVCNQCRQKLSCCPTCRGALTPSIRNLAMEKVASAVLFPCKYATTGCSLTLHHTEKPEHEDICEYRPYSCPCPGASCKWQGSLEAVMSHLMHAHKSITTLQGEDIVFLATDINLPGAVDWVMMQSCFGHHFMLVLEKQEKYEGHQQFFAIVLLIGTRKQAENFAYRLELNGNRRRLTWEATPRSIHDGVAAAIMNSDCLVFDTAIAHLFADNGNLGINVTISTCCP
notes: E3 ubiquitin ligase SIAH2, human, wild type; also called GST-tagged SIAH2; purified glutathione S-transferase (GST) SIAH2; source: E. coli BL21, purified
Regarding B1, the binding result (in the assay with His-DBC1; in assay [1]) was “binds” in each case.
